Results reported in PMC10460880, “Cathepsin K‐Activated Probe for Fluoro‐Photoacoustic Imaging of Early Osteolytic Metastasis” (Advanced Science, 2023).

Columns and labels:
cathepsin K (CTSK) = molecular target: T1, cathepsin K (CTSK) (Homo sapiens, UniProt P43235); assay: Kinetic assay (Michaelis-Menten) of probe cleavage by CTSK; format: biochemical
T1 sequence (P43235 115-329): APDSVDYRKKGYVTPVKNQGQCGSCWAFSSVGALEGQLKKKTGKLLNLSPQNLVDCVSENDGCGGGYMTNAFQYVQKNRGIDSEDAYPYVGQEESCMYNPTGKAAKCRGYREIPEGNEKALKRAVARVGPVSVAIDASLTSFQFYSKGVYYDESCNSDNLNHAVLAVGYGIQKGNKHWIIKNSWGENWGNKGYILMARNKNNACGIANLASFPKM
Procedure: (§1) In vitro analysis of cathepsin K (CTSK) activation, selectivity, and sensitivity studies.
Probe CTSK-APPA, D-CTSK-APPA, or CTSK-APP (10 μM) was incubated with CTSK in MES buffer (50 mM, pH 6.0) containing 0.1% DMSO, 2 mM ethylene diamine tetraacetic acid (EDTA), 4 mM dithiothreitol (DTT) and 0.15% chondroitin sulfate (CS) at 37 °C for 1 h. After incubation at the indicated time, UV-Vis spectra, fluorescence spectra, fluorescence images, and PA images of the solutions were recorded. […]
PA images were captured by using a MSOT scanner with
Kinetic assay. Different concentrations of CTSK-APPA or CTSK-APP (1, 2, 5, 10, 20, or 50 μM) were incubated with CTSK (100 ng/mL) in MES buffer containing 0.1% DMSO, 2mM EDTA, 4mM DTT, and 0.15% CS at 37 °C for 5 min. Fluorescence intensities of solution were measured for quantification analyses by a microplate reader (BioTek, Synergy 2) with excitation at 690 nm and emission at 720 nm. The kinetic parameters were calculated according to the Michaelis-Menten equation shown below: V = Vmax×[S]/(Km + [S]), where V is initial velocity, and [S] is substrate concentration.
(1 picture or pasted object on this page, not shown here)

[1] = system: CTSK + 2-CP; CTSB, FAP-α, Casp-3, APN, GGT, ALP, ACE, trypsin; assay: Selectivity study: fluorescence activation with inhibited CTSK or other proteases; format: biochemical; settings: probe 10 μM, 1 h; 2-CP 50 mM pre-treatment 30 min; n = 3
Procedure: as §1
Probe CTSK-APPA, D-CTSK-APPA, or CTSK-APP (10 μM) was incubated with CTSK in MES buffer (50 mM, pH 6.0) containing 0.1% DMSO, 2 mM ethylene diamine tetraacetic acid (EDTA), 4 mM dithiothreitol (DTT) and 0.15% chondroitin sulfate (CS) at 37 °C for 1 h. After incubation at the indicated time, UV-Vis spectra, fluorescence spectra, fluorescence images, and PA images of the solutions were recorded. Probe CyP (10 μM) incubated with CTSK (200 ng/mL) for 1 h was further analyzed by HPLC. For selectivity study, CTSK-APPA (10 μM) in a 96-well plate was incubated with CTSK (100 ng/mL), CTSB (100 ng/mL), FAP-α (9×10-4 U/mL), Caspase-3 (100 ng/mL), APN (100 ng/mL), GGT (0.1 U/mL), ALP (0.1 U/mL), ACE (1×10-3 U/mL), and trypsin (10 U/L) at […] for 1 h. For the inhibitory experiment, CTSK (100 ng/mL) was treated with CTSK inhibitor 2-Cyanopyrimidine (2-CP, 50 mM) at 37°C for 30 min. […]
Kinetic assay. […] Fluorescence intensities of solution were measured for quantification analyses by a microplate reader (BioTek, Synergy 2) with excitation at 690 nm and emission at 720 nm. The kinetic parameters were calculated according to the Michaelis-Menten equation shown below: V = Vmax×[S]/(Km + [S]), where V is initial velocity, and [S] is substrate concentration. […]

OCs = assay: Cell selectivity experiment, osteoclasts; format: cell-based; settings: n = 3
[2] = Renal clearance efficiency study; format: in vivo, BALB/c nude mice; settings: mice, i.v. 50 μM, 200 μL; urine, UV absorbance at 615 nm; n = 3
Procedure: Bone marrow toxicity analysis. The bone marrow toxicity of CTSK-APPA and CTSK-APP was assessed by blood analyses in mice. SPF grade 4-week-old BALB/c nude mice were intravenously injected with CTSK-APPA(50 μM, 200 μL) or saline (200 μL). The blood samples were collected in anticoagulant tubes at 24 h post-injection and stored at 4°C. The red blood count (RBC) and white blood count (WBC) were further measured.
Renal clearance efficiency studies. SPF grade 4-week-old BALB/c nude mice were intravenously injected with CTSK-APPA or CTSK-APP (50 μM, 200 μL) and placed in metabolic cages. The urine was collected at 3, 6, and 24 h post-injection, and then centrifuged at 5000 r.p.m. for 5 min. The supernatants containing excreted probes were quantified by using a UV-vis absorption spectrometer. […]
In vivo Bioluminescence, DR, CT, and MR imaging. […] Then BL imaging was recorded on an IVIS Spectrum imaging system at 10 min post-injection under anesthesia using isoflurane. All data were analyzed with the Living Image software. DR, CT, and MR imaging were recorded on an IVIS Spectrum imaging system, a single-photon emission computed tomography imaging system, and a preclinical magnetic resonance solution system, respectively.
Real-time tumor imaging. […] Fluorescence and PA images were acquired at 0, 1, 2, 4, 8, 12, and 24 h post-injection. […]
Histology. […] Images were captured by using a fluorescence microscope. […]

[3] = Histology (H&E) of organs after injection; format: in vivo, mice; settings: 24 h post intravenous administration

For Cbz‐Leu‐Arg‐OH [CTSK-APPA], the “catalytic efficiency (kcat/Km)” value (cathepsin K (CTSK); from Km and kcat) was 890000 M⁻¹ s⁻¹, the Km (cathepsin K (CTSK); probe 1-50 μM, CTSK 100 ng/mL, MES buffer, 37 °C, 5 min, Ex 690/Em 720 nm, n = 3, read-out: Michaelis–Menten constant (Km)) was 22.9 µM and the “catalytic rate constant (kcat)” value (cathepsin K (CTSK); probe 1-50 μM, CTSK 100 ng/mL, MES buffer, 37 °C, 5 min, n = 3) was 20.4 s⁻¹. For the same substance, the “fluorescence activation at 720 nm by CTSK with inhibitor 2-CP or by other proteases” value [1] was “almost no fluorescence activation”, the “NIR fluorescence after incubation with OCs” value (OCs) was “strong NIR fluorescence signals” and the “renal clearance efficiency 24 h post-injection” value [2] was 58.4%. For the same substance, the “histological changes (H&E) after injection” value [3] was “no histological changes”.
